Experiments:
[1] = target: His6-GapR_(1–69), truncated GapR lacking the entire helix H3 (C. crescentus); experiment: cross-linking; 400 mM EDC plus 100 mM NHS, 2 h, room temperature; proteins at 50 μM (monomer); 1 M NaCl and 1 mM EDTA (no DNA bound); SDS-PAGE, silver stained
[2] = target: His6-GapR_(1–69), truncated GapR lacking the entire helix H3 (C. crescentus); experiment: SEC; Superdex 75 10/300 GL, 1 M NaCl and 1 mM EDTA, proteins separated from copurified DNA; His6-GapR1-89 at 50 μM, His6-GapR1-69 at 125 μM, His6-GapR1-76 at 100 μM (monomer)
[3] = target: His6-GapR_(1–76), truncated GapR lacking the hydrophobic patch of helix H3 (C. crescentus); experiment: cross-linking; 400 mM EDC plus 100 mM NHS, 2 h, room temperature; proteins at 50 μM (monomer); 1 M NaCl and 1 mM EDTA (no DNA bound); SDS-PAGE, silver stained
[4] = target: His6-GapR_(1–76), truncated GapR lacking the hydrophobic patch of helix H3 (C. crescentus); experiment: SEC; Superdex 75 10/300 GL, 1 M NaCl and 1 mM EDTA, proteins separated from copurified DNA; His6-GapR1-89 at 50 μM, His6-GapR1-69 at 125 μM, His6-GapR1-76 at 100 μM (monomer)
[5] = target: His6-GapR_(1–89), full-length wild-type GapR of Caulobacter crescentus (C. crescentus); experiment: cross-linking; 400 mM EDC plus 100 mM NHS, 2 h, room temperature; proteins at 50 μM (monomer); 1 M NaCl and 1 mM EDTA (no DNA bound); SDS-PAGE, silver stained
[6] = target: His6-GapR_(1–89), full-length wild-type GapR of Caulobacter crescentus (C. crescentus); experiment: SEC; Superdex 75 10/300 GL, 1 M NaCl and 1 mM EDTA, proteins separated from copurified DNA; His6-GapR1-89 at 50 μM, His6-GapR1-69 at 125 μM, His6-GapR1-76 at 100 μM (monomer)
[7] = target: His6-GapR_(1–89), full-length wild-type GapR of Caulobacter crescentus (C. crescentus); experiment: cross-linking; 400 mM EDC plus 100 mM NHS, 2 h, room temperature; proteins at 50 μM (monomer); 150 mM NaCl, 10% glycerol, 20 mM HEPES (for tagged and untagged GapR1-89 also 50 mM sodium phosphate); SDS-PAGE, silver stained
[8] = target: untagged GapR_(1–89) (C. crescentus); experiment: as above

Substance “His6-GapR_(1–69), truncated GapR lacking the entire helix H3 (domain or fragment)” has a stoichiometry N [1] of 2 and a stoichiometry N [2] of 2.

“His6-GapR_(1–76), truncated GapR lacking the hydrophobic patch of helix H3 (domain or fragment)” was tested, and the stoichiometry N [3] was 2 and the stoichiometry N [4] was 2.

Substance “His6-GapR_(1–89), full-length wild-type GapR of Caulobacter crescentus (natural protein)” has a stoichiometry N [5] of 4, a stoichiometry N [6] of 4 and a stoichiometry N [7] of 4.

With untagged GapR_(1–89) (natural protein) the stoichiometry N [8] was 4.

— article PMC7373187
